T1: human coxsackie-adenovirus receptor (CAR) stably expressed on CHO-hCAR cells (human, UniProt P78310 20-365)
T1 sequence: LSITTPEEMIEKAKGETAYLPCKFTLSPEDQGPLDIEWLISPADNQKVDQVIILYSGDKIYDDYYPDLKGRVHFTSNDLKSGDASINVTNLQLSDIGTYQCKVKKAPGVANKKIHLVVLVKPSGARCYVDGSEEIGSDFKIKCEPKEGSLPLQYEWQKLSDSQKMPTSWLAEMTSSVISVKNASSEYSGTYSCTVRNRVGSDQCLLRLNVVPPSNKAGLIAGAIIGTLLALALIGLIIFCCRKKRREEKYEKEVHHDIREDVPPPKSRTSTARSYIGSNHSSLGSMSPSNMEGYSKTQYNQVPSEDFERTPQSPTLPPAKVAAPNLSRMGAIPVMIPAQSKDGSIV

B1: Ad5Luc1 control vector containing the HAdV-5 wild type fiber (other)
chain: MKRARPSEDTFNPVYPYDTETGPPTVPFLTPPFVSPNGFQESPPGVLSLRLSEPLVTSNGMLALKMGNGLSLDEAGNLTSQNVTTVSPPLKKTKSNINLEISAPLTVTSEALTVAAAAPLMVAGNTLTMQSQAPLTVHDSKLSIATQGPLTVSEGKLALQTSGPLTTTDSSTLTITASPPLTTATGSLGIDLKEPIYTQNGKLGLKYGAPLHVTDDLNTLTVATGPGVTINNTSLQTKVTGALGFDSQGNMQLNVAGGLRIDSQNRRLILDVSYPFDAQNQLNLRLGQGPLFINSAHNLDINYNKGLYLFTASNNSKKLEVNLSTAKGLMFDATAIAINAGDGLEFGSPNAPNTNPLKTKIGHGLEFDSNKAMVPKLGTGLSFDSTGAITVGNKNNDKLTLWTTPAPSPNCRLNAEKDAKLTLVLTKCGSQILATVSVLAVKGSLAPISGTVQSAHLIIRFDENGVLLNNSFLDPEYWNFRNGDLTEGTAYTNAVGFMPNLSAYPKSHGKTAKSNIVSQVYLNGDKTKPVTLTITLNGTQETGDTTPSAYSMSFSWDWSGHNYINEIFATSSYTFSYIAQE

Columns and labels:
[1] = target: human coxsackie-adenovirus receptor (CAR) stably expressed on CHO-hCAR cells (human) (UniProt P78310); test: cell-based or functional assay
[2] = target: human coxsackie-adenovirus receptor (CAR) stably expressed on CHO-hCAR cells (human) (UniProt P78310)
[3] = target: T1, human coxsackie-adenovirus receptor …; test: cell-based or functional assay

Molecule	inhibition of Ad5Luc1 gene transfer to CHO-hCAR cells by knob protein at 50 µg/ml [1] [%]	IC50 (read off the curve); inhibition of luciferase gene transfer of Ad5Luc1 into CHO-hCAR cells [2] [µg/mL]	luciferase activity in CHO-hCAR cells versus CHO cells (gene transfer assay) [3] [fold]
recombinant HAdV-5 fiber knob protein (from UniProt P11818 387-581)	> 96	1	–
B1	–	–	80
